Legend:
[1] = biological target: T1, acid β-glucosidase (GCase), Velaglucerase alfa (human, UniProt P04062 40-536, Chain 1 is a glycoprotein with N-linked, mannose-terminated oligosaccharides, which the letters do not carry.); experiment: microscale thermophoresis (MST); unlabelled GCase titrated against NBD-PS labelled SapC-DOPS, CP buffer pH 5.6
T1 construct: also called free GCase; human GCase
T1 sequence: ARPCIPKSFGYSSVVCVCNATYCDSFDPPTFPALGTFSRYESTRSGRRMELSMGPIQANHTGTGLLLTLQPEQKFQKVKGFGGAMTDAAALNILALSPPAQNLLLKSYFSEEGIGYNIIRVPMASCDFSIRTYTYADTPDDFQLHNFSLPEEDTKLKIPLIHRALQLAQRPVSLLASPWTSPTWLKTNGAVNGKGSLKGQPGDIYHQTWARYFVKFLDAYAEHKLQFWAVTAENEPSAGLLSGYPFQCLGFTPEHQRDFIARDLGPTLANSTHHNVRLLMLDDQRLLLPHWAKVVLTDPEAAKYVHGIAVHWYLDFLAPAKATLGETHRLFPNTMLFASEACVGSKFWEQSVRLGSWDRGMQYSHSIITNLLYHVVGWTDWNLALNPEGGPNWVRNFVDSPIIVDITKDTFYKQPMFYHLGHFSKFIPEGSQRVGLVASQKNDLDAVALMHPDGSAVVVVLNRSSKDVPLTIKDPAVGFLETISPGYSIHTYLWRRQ
Description: (§1) Binding was determined by measuring Kd using a Microscale Thermophoresis (MST) assay system on a Monolith NT.115. MicroScale NanoTemper. Temperature related intensity change (TRIC) together with thermophoresis contribution to the variation of fluorescence intensity was determined. NBD-PS [2-(4-nitro-2,1,3-benzoxadiazol-7-yl)aminoethyl-phophatidylserine (Avanti Polar Lipids Inc., Alabaster, Ala.) was used to fluorescently label DOPS. DOPS in chloroform was mixed with NBD-PS in DMSO at the molar ratio of 3:1. The organic solvent was evaporated under nitrogen gas. Upon suspension in CP buffer (0.1 M Citrate Phosphate buffer, pH 5.6), the mixture solutions were bath sonicated for 30 mins at 4° C. This preparation was tested with SapC or SapB to measure the Kd for binding to DOPS. […]
(§2) The final concentration of the reaction mixtures ranged from GCase/SapC-DOPS-NBD of 1562 nM/7500 nM for the 1st point to 0.024 nM/7500 nM for the 16th point (FIG. 16, Table 3). […] The thermophoresis time was 30 secs with dual reading setting (LED: 20%/40%; MST: 40%/50%). […] The raw data were analyzed to determine Kd values and plotted using MO Affinity Analysis v2.1.3 software (NanoTemper, München, Germany).

[2] = biological target: T1, acid β-glucosidase (GCase), …; experiment: microscale thermophoresis (MST), NBD-PS labelled vesicles, CP buffer pH 5.6
Description: as §1, §2

B1: SapC-DOPS nanovesicles (saposin C with dioleoylphosphatidylserine) (other)
chain: SDVYCEVCEFLVKEVTKLIDNNKTEKEILDAFDKMCSKLPKSLSEECQEVVDTYGSSILSILLEEVSPELVCSMLHLCSG
A Kd [1] of 29.4 nM was found for B1 in this work.

B2: saposin B (SapB)-DOPS (other, UniProt P07602 195-273, looked up)
chain: GDVCQDCIQMVTDIQTAVRTNSTFVQALVEHVKEECDRLGPGMADICKNYISQYSEIAIQMMMHMQPKEICALVGFCDE
notes: SapB formulated with DOPS at a 1:7 molar ratio and labelled with NBD-PS
B2: no binding [2].

— patent publication US20230103407A1 (UNIVERSITY OF CINCINNATI, published 2023)
